Common to all, as to experiment: SPR (Biacore 3000), fusion protein immobilized on CM5, TGF-β injected
For orientation: SPR reads the build-up and loss of mass on a sensor chip optically.

Assay [1] deals with T1, TGF-β2 (UniProt P61812 303-414).
T1 sequence (looked up): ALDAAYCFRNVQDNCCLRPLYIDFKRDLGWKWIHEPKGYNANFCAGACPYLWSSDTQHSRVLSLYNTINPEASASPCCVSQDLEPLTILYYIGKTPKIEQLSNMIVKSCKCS
The procedure:
(§1) Surface plasma resonance (SPR) analysis was performed using Biacore3000, CM5 chip, an amine-coupling kit, 10×HBS-P running buffer and Glycine for regeneration (GE Healthcare). […] Dissociation was allowed to proceed followed by a pulse of 10 mM Glycine (pH 1.5) for regeneration of the chip surface.

Assay [2] concerns the target T2, TGF-β3 (UniProt P10600 301-412).
T2 sequence (looked up): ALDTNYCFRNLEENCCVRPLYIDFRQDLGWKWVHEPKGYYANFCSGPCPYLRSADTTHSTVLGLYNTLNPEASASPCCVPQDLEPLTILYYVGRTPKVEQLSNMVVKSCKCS
On the procedure: as §1

Assay [3] concerns the target T3, TGF-β1 (UniProt P01137 279-390).
T3 construct: also called TGF-b1
On the procedure:
as §1

Consider 1 molecule from patent US20220023420A1 (PRECIGEN, published 2022).

T3 sequence (P01137 279-390 limits assumed): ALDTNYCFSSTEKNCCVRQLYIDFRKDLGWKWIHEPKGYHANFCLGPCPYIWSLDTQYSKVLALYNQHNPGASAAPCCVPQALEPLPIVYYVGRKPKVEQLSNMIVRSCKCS

B1: Anti-PD-1(VH6-VL5) IgG4-TGFβRII (other)
heavy: QVQLVESGGGVVQPGRSLRLDCKASGITFSNSGMHWVRQAPGKGLEWVAVIWYDGSKRYYADSVKGRFTISRDNSKNTLFLQMNSLRAEDTAVYYCATNDDYWGQGTLVTVSSASTKGPSVFPLAPCSRSTSESTAALGCLVKDYFPEPVTVSWNSGALTSGVHTFPAVLQSSGLYSLSSVVTVPSSSLGTKTYTCNVDHKPSNTKVDKRVESKYGPPCPSCPAPEFLGGPSVFLFPPKPKDTLMISRTPEVTCVVVDVSQEDPEVQFNWYVDGVEVHNAKTKPREEQFNSTYRVVSVLTVLHQDWLNGKEYKCKVSNKGLPSSIEKTISKAKGQPREPQVYTLPPSQEEMTKNQVSLTCLVKGFYPSDIAVEWESNGQPENNYKTTPPVLDSDGSFFLYSRLTVDKSRWQEGNVFSCSVMHEALHNHYTQKSLSLSPGKGGGGSGGGGSIPPHVQKSVNNDMIVTDNNGAVKFPQLCKFCDVRFSTCDNQKSCMSNCSITSICEKPQEVCVAVWRKNDENITLETVCHDPKLPYHDFILEDAASPKCIMKEKKKPGETFFMCSCSSDECNDNIIFSEEYNTSNPD
light: not shown
notes: also called anti-PD-1 IgG4 antibody (VH6-VL5)-TGFβRII fusion protein; VH6-IgG4(wt)-linker-ECD with VL5
As for B1, the Kd (usually the concentration at which binding is half-saturated) came out at 859 pM in assay [1], 2.19 pM in assay [2] and 5.22 pM in assay [3].
